Measured values reported in article PMC6786531.

Experiments:
[1] = molecular target: Paclitaxel-stabilised microtubules containing 10% X-rhodamine-labelled and 10% biotin-labelled tubulin (porcine) (UniProt P02550)
[2] = molecular target: Paclitaxel-stabilised microtubules of unlabelled porcine brain tubulin (porcine) (UniProt P02550)
[3] = molecular target: P. falciparum kinesin-8X motor domain with C-terminal SNAPf tag, biotinylated (Pfkinesin-8X-MD-SNAP) (P. falciparum)
[4] = molecular target: P. berghei kinesin-8X motor domain with C-terminal SNAPf tag, biotinylated (Pbkinesin-8X-MD-SNAP) (P. berghei)

| Substance | MT depolymerization rate with AMPPNP (TIRF microscopy, 2.5 uM motor domain, 5 mM nucleotide, room temperature) [1] [nm/s] | MT depolymerization rate with ATP (TIRF microscopy, 2.5 uM motor domain, 5 mM nucleotide, room temperature) [1] [nm/s] | MT-stimulated ATPase activity, K1/2(MT) (enzyme-coupled assay, 250 nM motor domain, 0-6 uM paclitaxel-stabilised MTs, 37°C) [2] [µM] | MT-stimulated ATPase activity, Vmax (enzyme-coupled assay, 37°C) [2] [ATP/s] | MT-stimulated ATPase activity, K1/2(MT) (enzyme-coupled assay, 250 nM motor domain, 0-6 uM paclitaxel-stabilised MTs, 26°C) [2] [µM] | MT-stimulated ATPase activity, Vmax (enzyme-coupled assay, 26°C) [2] [ATP/s] | MT gliding velocity on surface-held biotinylated motor domain (TIRF microscopy, 5 mM ATP, room temperature) [3] [nm/s] | MT gliding velocity on surface-held biotinylated motor domain (TIRF microscopy, 5 mM ATP, room temperature) [4] [nm/s] |
| --- | --- | --- | --- | --- | --- | --- | --- | --- |
| P. berghei kinesin-8X motor domain (Pbkinesin-8X-MD) (domain or fragment) | 1.8 | 4.3 | 2.2 | 2.2 | – | – | – | – |
| P. falciparum kinesin-8X motor domain (Pfkinesin-8X-MD) (domain or fragment) | 0.3 | 0.5 | – | – | 1.3 | 6.5 | – | – |
| Paclitaxel-stabilised microtubules containing 10% X-rhodamine-labelled tubulin (from UniProt P02550 1-451) (complex) | – | – | – | – | – | – | 3.7 | 17.8 |
